The values that follow are results of earlier work, collected in PMC4355281.

One may read the Kd as a measure of binding affinity in units of concentration.

In this series the target is PKA RII (UniProt P13861).
Chain of PKA RII (P13861 2-404): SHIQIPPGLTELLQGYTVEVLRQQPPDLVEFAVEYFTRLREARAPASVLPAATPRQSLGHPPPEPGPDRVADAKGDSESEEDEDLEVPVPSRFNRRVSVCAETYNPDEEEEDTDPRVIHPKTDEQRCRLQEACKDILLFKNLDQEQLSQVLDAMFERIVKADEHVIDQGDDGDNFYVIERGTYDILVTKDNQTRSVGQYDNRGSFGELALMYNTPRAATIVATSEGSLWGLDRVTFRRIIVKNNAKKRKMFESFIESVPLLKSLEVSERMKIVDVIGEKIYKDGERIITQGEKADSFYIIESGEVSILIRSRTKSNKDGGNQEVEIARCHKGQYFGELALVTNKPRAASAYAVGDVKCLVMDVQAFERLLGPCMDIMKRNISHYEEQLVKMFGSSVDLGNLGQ

Chain of mAKAPβ (Q9WVC7 245-2314): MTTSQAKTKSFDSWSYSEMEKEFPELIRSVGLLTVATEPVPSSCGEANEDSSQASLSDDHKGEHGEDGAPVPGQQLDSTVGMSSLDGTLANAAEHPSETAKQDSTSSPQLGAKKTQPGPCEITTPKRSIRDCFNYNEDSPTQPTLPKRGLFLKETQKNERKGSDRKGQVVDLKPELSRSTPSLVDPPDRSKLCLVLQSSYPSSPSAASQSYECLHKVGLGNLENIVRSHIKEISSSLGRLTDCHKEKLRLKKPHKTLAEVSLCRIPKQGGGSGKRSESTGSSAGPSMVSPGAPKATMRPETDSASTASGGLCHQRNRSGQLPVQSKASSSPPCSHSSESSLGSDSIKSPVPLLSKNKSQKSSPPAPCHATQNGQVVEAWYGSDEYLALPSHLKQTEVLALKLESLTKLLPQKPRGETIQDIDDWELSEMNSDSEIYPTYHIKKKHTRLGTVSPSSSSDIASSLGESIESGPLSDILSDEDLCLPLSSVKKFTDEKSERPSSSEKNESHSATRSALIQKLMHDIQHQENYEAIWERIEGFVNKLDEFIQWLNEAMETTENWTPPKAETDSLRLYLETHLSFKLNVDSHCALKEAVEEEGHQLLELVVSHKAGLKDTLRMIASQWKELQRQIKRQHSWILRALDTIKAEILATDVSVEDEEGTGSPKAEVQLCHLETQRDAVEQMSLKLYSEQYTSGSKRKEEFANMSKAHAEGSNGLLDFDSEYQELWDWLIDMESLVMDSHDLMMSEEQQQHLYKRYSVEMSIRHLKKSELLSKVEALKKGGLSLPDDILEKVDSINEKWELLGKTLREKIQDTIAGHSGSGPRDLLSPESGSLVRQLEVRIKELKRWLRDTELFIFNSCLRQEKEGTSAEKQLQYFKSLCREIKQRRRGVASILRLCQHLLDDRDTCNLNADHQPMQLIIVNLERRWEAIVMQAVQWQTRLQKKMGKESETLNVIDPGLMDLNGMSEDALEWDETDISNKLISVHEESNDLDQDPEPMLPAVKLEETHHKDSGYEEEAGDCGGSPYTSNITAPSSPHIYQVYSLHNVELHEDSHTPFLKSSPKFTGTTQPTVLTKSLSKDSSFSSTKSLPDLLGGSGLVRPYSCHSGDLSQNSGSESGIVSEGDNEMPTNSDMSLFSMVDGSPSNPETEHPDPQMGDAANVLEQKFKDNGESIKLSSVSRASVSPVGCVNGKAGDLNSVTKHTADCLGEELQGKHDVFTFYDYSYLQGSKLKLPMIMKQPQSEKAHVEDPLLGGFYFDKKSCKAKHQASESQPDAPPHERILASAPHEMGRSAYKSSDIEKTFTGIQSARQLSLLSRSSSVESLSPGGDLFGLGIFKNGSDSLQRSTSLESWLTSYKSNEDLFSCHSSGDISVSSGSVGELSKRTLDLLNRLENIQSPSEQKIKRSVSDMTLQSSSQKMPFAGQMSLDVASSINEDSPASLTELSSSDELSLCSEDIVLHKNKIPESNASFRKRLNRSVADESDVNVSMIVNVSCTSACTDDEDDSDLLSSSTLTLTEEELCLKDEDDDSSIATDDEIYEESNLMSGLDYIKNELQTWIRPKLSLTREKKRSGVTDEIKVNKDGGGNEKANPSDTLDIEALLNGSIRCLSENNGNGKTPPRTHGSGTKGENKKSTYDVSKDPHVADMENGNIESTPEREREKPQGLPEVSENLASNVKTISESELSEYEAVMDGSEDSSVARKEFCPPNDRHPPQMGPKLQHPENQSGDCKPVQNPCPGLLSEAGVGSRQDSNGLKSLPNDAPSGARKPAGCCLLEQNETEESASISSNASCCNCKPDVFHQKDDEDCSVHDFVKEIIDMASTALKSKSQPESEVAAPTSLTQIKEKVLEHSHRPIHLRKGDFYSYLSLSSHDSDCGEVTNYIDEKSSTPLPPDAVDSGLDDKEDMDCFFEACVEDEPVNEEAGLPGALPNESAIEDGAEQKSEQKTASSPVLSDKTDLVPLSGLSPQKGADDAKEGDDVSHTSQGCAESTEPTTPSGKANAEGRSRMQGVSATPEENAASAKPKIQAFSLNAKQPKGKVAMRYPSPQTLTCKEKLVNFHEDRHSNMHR

As to mAKAPβ (from UniProt Q9WVC7), the dissociation constant (Kd) is 0.119 µM.
